Measurements reported in patent US20190030139.

Experiments:
USP10 S76 peptide = test system: T1, USP10 S76 peptide
T1 sequence: TLPRTPSYSISST

Question: What does the source list for Purified AMPK (Upstate Biotechnology)?
Answer: initial rate of phosphorylation (in vitro kinase assay, 32P incorporation) (SAMS peptide (Abcam)): 95±18 pmol/min/reaction mix; maximal stoichiometry of phosphorylation (SAMS peptide (Abcam)): 0.35±0.02 mol/mol; initial rate of phosphorylation (in vitro kinase assay, 32P incorporation) (USP10 S76 peptide): 155±36 pmol/min/reaction mix; maximal stoichiometry of phosphorylation (USP10 S76 peptide): 0.46±0.04 mol/mol

Question: Which results are given for “USP10CA (catalytically inactive CA mutant, recombinant)”?
Answer: in vitro deubiquitination assay, immunoblot (FIG. 4C) (Ubiquitinated AMPKα1): the catalytically inactive CA mutant could not; in vitro deubiquitination assay, immunoblot (FIG. 3H) (Ubiquitinated AMPKα2): the catalytically inactive CA mutant could not
